Consider eight molecules from patent US20100092982A1 (University of California, published 2010).

B2: GST-CARM1 (enzyme)
chain: AAAATAVGPGAGSAGVAGPGGAGPCATVSVFPGARLLTIGDANGEIQRHAEQQALRLEVRAGPDAAGIALYSHEDVCVFKCSVSRETECSRVGRQSFIITLGCNSVLIQFATPHDFCSFYNILKTCRGHTLERSVFSERTEESSAVQYFQFYGYLSQQQNMMQDYVRTGTYQRAILQNHTDFKDKIVLDVGCGSGILSFFAAQAGARKIYAVEASTMAQHAEVLVKSNNLTDRIVVIPGKVEEVSLPEQVDIIISEPMGYMLFNERMLESYLHAKKYLKPSGNMFPTIGDVHLAPFTDEQLYMEQFTKANFRYQPSFHGVDLSALRGAAVDEYFRQPVVDTFDIRILMAKSVKYTVNFLEAKEGDLHRIEIPFKFHMLHSGLVHGLAFWFDVAFIGSIMTVWLSTAPTEPLTHWYQVRCLFQSPLFAKAGDTLSGTCLLIANKRQSYDISIVAQVDQTGSKSSNLLDLKNPFFRYTGTTPSPPPGSHYTSPSENMWNTGSTYNLSSGVAVAGMPTAYDLSSVIAGGSSVGHNNLIPLANTGIVNHTHSRMGSIMSTGIVQGSSGAQGGGGSSSAHYAVNNQFTMGGPAISMASPMSIPTNTMHYGS
notes: also called GST fusion protein of CARM1; glutathione S-transferase-CARM1; not shown: glutathione S-transferase (GST) as encoded by vector pGEX-4T1 (Pharmacia)

The target of assay [1] is T1, CARM1 fused to Gal4AD (pGAD10.CARM1) (mouse, UniProt Q4AE70 3-651 (rat entry)).
T1 construct: Yeast two-hybrid prey; also called CARM1-AD hybrid protein; CARM1(3-608)
T1 sequence: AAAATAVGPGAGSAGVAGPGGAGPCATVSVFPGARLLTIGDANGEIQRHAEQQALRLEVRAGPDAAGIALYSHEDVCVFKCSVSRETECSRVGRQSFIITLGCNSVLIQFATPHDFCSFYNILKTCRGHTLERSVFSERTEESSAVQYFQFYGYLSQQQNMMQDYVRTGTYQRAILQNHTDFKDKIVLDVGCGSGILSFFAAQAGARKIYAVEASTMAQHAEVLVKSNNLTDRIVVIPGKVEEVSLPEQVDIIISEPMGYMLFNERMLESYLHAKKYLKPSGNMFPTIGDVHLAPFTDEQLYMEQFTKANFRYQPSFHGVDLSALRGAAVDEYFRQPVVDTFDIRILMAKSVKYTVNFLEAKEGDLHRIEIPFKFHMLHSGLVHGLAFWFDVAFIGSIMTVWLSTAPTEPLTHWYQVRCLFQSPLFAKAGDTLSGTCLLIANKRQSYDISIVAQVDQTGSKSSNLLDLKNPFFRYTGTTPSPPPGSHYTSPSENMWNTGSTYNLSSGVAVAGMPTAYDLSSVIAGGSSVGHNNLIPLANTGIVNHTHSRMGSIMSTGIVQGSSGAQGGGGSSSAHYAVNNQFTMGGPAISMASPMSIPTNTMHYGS
The experiment in a line: yeast two-hybrid, β-galactosidase activity. As for the experimental part:
(§1) Sub-fragments of the GRIP1 C-terminal domain (GRIP lc), fused with the Gal4 DBD, were tested in the yeast two-hybrid system as described previously (Ding, X. F. et al. (1998) Mol. Endocrinol. 12:302) for binding to CARM1 or to α-actinin, fused to Gal4AD. β-galactosidase (β-gal) activity indicates interaction between the two hybrid proteins.

Assay [2] concerns the target T2, GRIP1 amino acids 5-765, translated in vitro (UniProt Q61026 5-765).
T2 construct: range 5-765; also called GRIP1 (5-765); not shown: translation start and HA tag encoded by pSG5.HA
Briefly: GST pull-down on glutathione agarose beads, labeled in vitro translated fragment, SDS-PAGE. The procedure: (§2) The binding of GRIP1c to CARM1 observed in the yeast two-hybrid system was confirmed in vitro, by incubating glutathione S-transferase (GST) fusion proteins attached to glutathione agarose beads with labeled proteins or protein fragments translated in vitro. […] Conversely, GST-GRIP1c bound CARM1 and the VLD to AAA mutant of CARM1 (FIG. 3B). GST-CARM1 not only bound GRIP1 but also the other two members of the p160 coactivator family, SRC-1a and ACTR (FIG. 3A). […] GST fusion proteins of CARM1 or the indicated GRIP1 fragments produced in E. coli strain BL21 (Stratagene), were bound to glutathione-agarose beads and incubated with labeled full length CARM1 or p160 coactivators or GRIP1 fragments translated in vitro from vector pSG5.HA-CARM1, pSG5.HA-GRIP1, pSG5.HA-SRC-1a (Chen, D. et al. 1999), or pCMX.ACTR (Chen et al. 1997); bound labeled proteins were eluted and analyzed by SDS polyacrylamide gel electrophoresis as described previously (Hong et al. 1996). A mutant form of CARM1 with the triple amino acid substitution (VLD changed to AAA) shown in FIG. 1 still retains the ability to bind to the C-terminal fragment of GRIP1.

The target of assay [3] is T1, CARM1 fused to Gal4AD (pGAD10.CARM1). Briefly: yeast two-hybrid, β-galactosidase activity (figure legend). As for the experimental part:
as §1

For assay [4], the target named is B2. The experiment in a line: GST pull-down on glutathione agarose beads, labeled in vitro translated fragment, SDS-PAGE. As for the experimental part:
as §2

T2 sequence (Q61026 5-765): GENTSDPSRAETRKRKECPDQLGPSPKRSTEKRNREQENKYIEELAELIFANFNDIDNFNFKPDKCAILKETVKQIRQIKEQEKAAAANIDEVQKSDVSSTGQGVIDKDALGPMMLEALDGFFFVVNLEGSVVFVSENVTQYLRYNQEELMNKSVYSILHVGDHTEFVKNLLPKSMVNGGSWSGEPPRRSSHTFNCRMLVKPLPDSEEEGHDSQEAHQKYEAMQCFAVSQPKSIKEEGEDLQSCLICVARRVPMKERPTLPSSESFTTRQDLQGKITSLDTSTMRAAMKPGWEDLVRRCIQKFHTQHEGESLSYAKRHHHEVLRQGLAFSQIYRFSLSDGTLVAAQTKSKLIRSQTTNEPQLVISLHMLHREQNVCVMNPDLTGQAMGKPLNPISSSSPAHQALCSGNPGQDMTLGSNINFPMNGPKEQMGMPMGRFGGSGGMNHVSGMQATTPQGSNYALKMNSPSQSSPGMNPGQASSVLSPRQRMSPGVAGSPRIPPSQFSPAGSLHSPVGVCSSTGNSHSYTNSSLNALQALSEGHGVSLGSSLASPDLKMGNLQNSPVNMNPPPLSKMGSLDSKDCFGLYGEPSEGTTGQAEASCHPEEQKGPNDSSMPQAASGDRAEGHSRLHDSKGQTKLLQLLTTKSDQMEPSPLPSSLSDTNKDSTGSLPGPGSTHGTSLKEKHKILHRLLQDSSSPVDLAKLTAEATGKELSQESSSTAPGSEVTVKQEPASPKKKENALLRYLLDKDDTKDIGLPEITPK

B1: Gal4 DBD-GRIP1 amino acids 1121-1210 (N-terminal fragment of GRIP1c bisected between 1210 and 1211) (other, UniProt P04386 1-147, looked up)
chain: MKLLSSIEQACDICRLKKLKCSKEKPKCAKCLKNNWECRYSPKTKRSPLTRAHLTEVESRLERLEQLFLLIFPREDLDMILKMDSLQDIKALLTGLFVQDNVNKDAVTDRLASVETDMPLTLRQHRISATSSSEESSNKGQRQLTVSESSIMLEQKPPVFPQQYASQAQMAQGGYNPMQDPNFHTMGQRPNYTTLRMQPRPGLRPTGIVQNQPNQLRLQLQHRLQAQQNRQPLMNQI
notes: also called the N-terminal fragment
On to B1, for which, in assay [1], the binding result is reported as “no binding”.

As for B2, the binding result in assay [2] is “no binding”.

B3: Gal4 DBD-GRIP1c (GRIP1 1122-1462) (other, UniProt P04386 1-147, looked up)
chain: MKLLSSIEQACDICRLKKLKCSKEKPKCAKCLKNNWECRYSPKTKRSPLTRAHLTEVESRLERLEQLFLLIFPREDLDMILKMDSLQDIKALLTGLFVQDNVNKDAVTDRLASVETDMPLTLRQHRISATSSSEESSNKGQRQLTVSSSIMLEQKPPVFPQQYASQAQMAQGGYNPMQDPNFHTMGQRPNYTTLRMQPRPGLRPTGIVQNQPNQLRLQLQHRLQAQQNRQPLMNQISSVSNVNLTLRPGVPTQAPINAQMLAQRQREILNQHLRQRQMQQQVQQRTLMMRGQGLNVTPSMVAPAGLPAAMSNPRIPQANAQQFPFPPNYGISQQPDPGFTGATTPQSPLMSPRMAHTQSPMMQQSQANPAYQPTSDMNGWAQGSMGGNSMFSQQSPPHFGQQANTSMYSNNMNISVSMATNTGGLSSMNQMTGQMSMTSVTSVPTSGLPSMGPEQVNDPALRGGNLFPNQLPGMDMIKQEGDASRKYC
notes: One entry covers both the yeast bait (pGBT9) and the mammalian vector (pM) fusion; also called pGBT9.GRIP1c; pM.GRIP1c
As for B3, in assay [3], the binding result was “binds”.

B4: Gal4 DBD-GRIP1c C-terminal fragment starting at amino acid 1306 (GRIP1c bisected between 1305 and 1306) (other, UniProt P04386 1-147, looked up)
chain: MKLLSSIEQACDICRLKKLKCSKEKPKCAKCLKNNWECRYSPKTKRSPLTRAHLTEVESRLERLEQLFLLIFPREDLDMILKMDSLQDIKALLTGLFVQDNVNKDAVTDRLASVETDMPLTLRQHRISATSSSEESSNKGQRQLTVSSQQPDPGFTGATTPQSPLMSPRMAHTQSPMMQQSQANPAYQPTSDMNGWAQGSMGGNSMFSQQSPPHFGQQANTSMYSNNMNISVSMATNTGGLSSMNQMTGQMSMTSVTSVPTSGLPSMGPEQVNDPALRGGNLFPNQLPGMDMIKQEGDASRKYC
Consider B4, for which, in assay [1], the binding result was “no binding”.

B5: Gal4 DBD-GRIP1 1211-1462 (C-terminal fragment of GRIP1c bisected between 1210 and 1211) (other, UniProt P04386 1-147, looked up)
chain: MKLLSSIEQACDICRLKKLKCSKEKPKCAKCLKNNWECRYSPKTKRSPLTRAHLTEVESRLERLEQLFLLIFPREDLDMILKMDSLQDIKALLTGLFVQDNVNKDAVTDRLASVETDMPLTLRQHRISATSSSEESSNKGQRQLTVSSSVSNVNLTLRPGVPTQAPINAQMLAQRQREILNQHLRQRQMQQQVQQRTLMMRGQGLNVTPSMVAPAGLPAAMSNPRIPQANAQQFPFPPNYGISQQPDPGFTGATTPQSPLMSPRMAHTQSPMMQQSQANPAYQPTSDMNGWAQGSMGGNSMFSQQSPPHFGQQANTSMYSNNMNISVSMATNTGGLSSMNQMTGQMSMTSVTSVPTSGLPSMGPEQVNDPALRGGNLFPNQLPGMDMIKQEGDASRKYC
notes: also called the C-terminal fragment
For the molecule B5, the binding result in assay [1] is on record as “binds”.

B6: GRIP1 amino acids 730-1121, translated in vitro (other, UniProt Q61026 730-1121, looked up)
chain: VKQEPASPKKKENALLRYLLDKDDTKDIGLPEITPKLERLDSKTDPASNTKLIAMKTVKEEVSFEPSDQPGSELDNLEEILDDLQNSQLPQLFPDTRPGAPTGSVDKQAIINDLMQLTADSSPVPPAGAQKAALRMSQSTFNNPRPGQLGRLLPNQNLPLDITLQSPTGAGPFPPIRNSSPYSVIPQPGMMGNQGMLGSQGNLGNNSTGMIGSSTSRPSMPSGEWAPQSPAVRVTCAATTGAMNRPVQGGMIRNPTASIPMRANSQPGQRQMLQSQVMNIGPSELEMNMGGPQYNQQQAPPNQTAPWPESILPIDQASFASQNRQPFGSSPDDLLCPHPAAESPSDEGALLDQLYLALRNFDGLEEIDRALGIPELVSQSQAVDAEQFSSQE
notes: range 730-1121; also called GRIP1 (730-1121); not shown: translation start and HA tag encoded by pSG5.HA
As to B6, the binding result in assay [4] is recorded as “no binding”.

B7: Gal4 DBD-GRIP1c N-terminal fragment ending at amino acid 1305 (GRIP1c bisected between 1305 and 1306) (other, UniProt P04386 1-147, looked up)
chain: MKLLSSIEQACDICRLKKLKCSKEKPKCAKCLKNNWECRYSPKTKRSPLTRAHLTEVESRLERLEQLFLLIFPREDLDMILKMDSLQDIKALLTGLFVQDNVNKDAVTDRLASVETDMPLTLRQHRISATSSSEESSNKGQRQLTVSSSIMLEQKPPVFPQQYASQAQMAQGGYNPMQDPNFHTMGQRPNYTTLRMQPRPGLRPTGIVQNQPNQLRLQLQHRLQAQQNRQPLMNQISSVSNVNLTLRPGVPTQAPINAQMLAQRQREILNQHLRQRQMQQQVQQRTLMMRGQGLNVTPSMVAPAGLPAAMSNPRIPQANAQQFPFPPNYGI
Consider B7, for which the binding result in assay [1] is “no binding”.

B8: Gal4 DBD-GRIP1 fragment 1211-1350 (other, UniProt P04386 1-147, looked up)
chain: MKLLSSIEQACDICRLKKLKCSKEKPKCAKCLKNNWECRYSPKTKRSPLTRAHLTEVESRLERLEQLFLLIFPREDLDMILKMDSLQDIKALLTGLFVQDNVNKDAVTDRLASVETDMPLTLRQHRISATSSSEESSNKGQRQLTVSSSVSNVNLTLRPGVPTQAPINAQMLAQRQREILNQHLRQRQMQQQVQQRTLMMRGQGLNVTPSMVAPAGLPAAMSNPRIPQANAQQFPFPPNYGISQQPDPGFTGATTPQSPLMSPRMAHTQSPMMQQSQANPAYQPTSD
For the molecule B8, the binding result in assay [1] is “binds”.
